Measurements as given in patent publication US20230025280A1, “PH RESPONSIVE COMPOSITIONS, FORMULATIONS, AND METHODS OF IMAGING A TUMOR” (ONCONANO MEDICINE, INC, priority 2019, published 2023).
Several values for one entry are separate records, joined by “and”; a condition that tells them apart may be missing. Equal values may be shown once.

Assay: Phase 1 (1a/1b) pharmacokinetics: plasma concentrations after single IV dose (validated direct fluorescence reader assay), noncompartmental analysis
Assay type: in vivo, human
Settings: 1.2 mg/kg
Excerpt: Phase 1 is a single-Principal Investigator, non-randomized, open-label, single-arm, cross-sectional study to evaluate the safety, PK profile, and imaging feasibility of Compound 1 in patients with solid cancers who require surgical excision. The main purpose of this study was to investigate the safety, PK, and feasibility of Compound 1 as an intra-operative optical imaging agent to detect tumors and metastatic lymph nodes in solid cancers. The study was intended to investigate the optimal dose range of Compound 1 for an adequate TBR and CNR of fluorescence obtained intraoperatively at 24 (±8) hours post dosing and with ex vivo specimens using ICG compatible cameras and imaging devices.
Phase 1 enrolled 30 patients with solid cancers (HNSCC, breast cancer, esophageal cancer, or colorectal cancer) who have a biopsy-confirmed diagnosis of respective tumor types and are scheduled to undergo surgical resection of the tumor. The study design included a standard 3+3 design for the dose-escalation portion (Phase 1a; N=18 maximum) followed by a dose-expansion portion (Phase 1b; N=15). All patients received a single I.V. dose of Compound 1, followed by routine surgery approximately 24 hours after infusion of Compound 1.
Phase 1a was a dose-finding study performed in 5 cohorts of 3 patients each. The dose levels evaluated were […], and 1.2 mg/kg, in this sequence. Inter-cohort dose escalation took place after the last patient in the previous cohort completed the Day 10 safety assessment. Safety, PK, and imaging feasibility were evaluated in both the Phase 1a and 1b portions of the study. Patient safety is assessed during the study and for up to 10 days post-dose.
Study design: Single Compound 1 IV dose was administered as a 1-5 minute IV infusion to patients in five cohorts (0.1, 0.3, 0.5, 0.8, and 1.2 mg/kg) with three patients per cohort in Phase 1a and 15 patients at a dose of 1.2 mg/kg in Phase 1b. Patient demographic information including tumor types is presented in Table 4 and 5 for Phase 1a and Table 5 for Phase 1b. Intertek Pharmaceutical Services (San Diego, Calif.) determined Compound 1 plasma concentrations using a validated direct fluorescence reader assay. Pacific BioDevelopment (Davis, Calif.) performed the PK analysis.
Sample collection: Blood samples were collected prior to infusion and at 10 minutes and 0.5, 1, 3, 8, 24, 48, 72, and 240 hours after infusion.
Analysis: Plasma concentration versus time profiles were generated for each patient. Pharmacokinetic parameters were estimated using Phoenix WinNonlin (version 8.0). According to SOP, concentrations reported as BQL were set to 0 except for the 0.5 h sample for subject #ON1102, which was set to LLOQ/2 ([…] value used in parameter calculations) and the 24 and 48 h samples.
If the coefficient of determination for the terminal slope estimation was less than 0.8, T1/2 was not reported (NR). AUC extrapolated to infinity is not reported for any data set because in all cases the % extrapolated AUC was greater than 20% and thus the AUCinf estimate would not be reliable. The concentration at 10 minutes, the first time point measured (C10m), was also reported for each patient.
The area under the plasma concentration versus time curves from dosing to the last time point with a measurable concentration (AUClast) was estimated by the linear trapezoid method. The last three or more time points were used to estimate the elimination rate constant (λz) which was used to estimate the terminal-phase half-life (T1/2) and AUC from zero to infinity (AUCINF) from the following equations: […]

**Q.** What does the source list for “PEO90-140-b-P(DBA60-150-r-ICG0-3-r-AMA0-3) [Compound 1]”?
**A.** Differences in pharmacokinetic parameters based on tumor type (Phase 1a and Phase 1b): no apparent differences; T1/2 (ALL cancer types, Mean, N 16): 44.5 h; AUC0-24 hr (ALL cancer types, Mean, N 18): 615 µg·h/mL; AUCall (ALL cancer types, Mean, N 18): 1670 µg·h/mL; AUClast (ALL cancer types, Mean, N 18): 1100 µg·h/mL; C10 m (ALL cancer types, Mean, N 18): 33.0 µg/mL; Cmax (ALL cancer types, Mean, N 18): 34300 ng/mL; Tmax (ALL cancer types, Mean, N 18): 0.834 h; T1/2 (ALL cancer types, Median, N 16): 40.5 h; AUC0-24 hr (ALL cancer types, Median, N 18): 615 µg·h/mL; AUCall (ALL cancer types, Median, N 18): 1170 µg·h/mL; AUClast (ALL cancer types, Median, N 18): 997 µg·h/mL; C10 m (ALL cancer types, Median, N 18): 32.4 µg/mL; Cmax (ALL cancer types, Median, N 18): 33600 ng/mL; Tmax (ALL cancer types, Median, N 18): 0.500 h; AUC0-24 hr (BC, Mean, N 5): 592 µg·h/mL; AUCall (BC, Mean, N 5): 1730 µg·h/mL; AUClast (BC, Mean, N 5): 1150 µg·h/mL; C10 m (BC, Mean, N 5): 31.2 µg/mL; Cmax (BC, Mean, N 5): 32900 ng/mL; T1/2 (BC, Mean, N 5): 51.0 h; Tmax (BC, Mean, N 5): 0.634 h; AUC0-24 hr (BC, Median, N 5): 574 µg·h/mL; AUCall (BC, Median, N 5): 1170 µg·h/mL; AUClast (BC, Median, N 5): 1020 µg·h/mL; C10 m (BC, Median, N 5): 33.0 µg/mL; Cmax (BC, Median, N 5): 33000 ng/mL; T1/2 (BC, Median, N 5): 45.5 h; Tmax (BC, Median, N 5): 0.500 h; AUC0-24 hr (BC, individual subjects): 630 µg·h/mL and 693 µg·h/mL and 574 µg·h/mL and 562 µg·h/mL and 502 µg·h/mL; AUCall (BC, individual subjects): 1170 µg·h/mL and 3190 µg·h/mL and 1020 µg·h/mL and 1120 µg·h/mL and 2120 µg·h/mL; AUClast (BC, individual subjects): 1020 µg·h/mL and 1740 µg·h/mL and 891 µg·h/mL and 968 µg·h/mL and 1110 µg·h/mL; C10 m (BC, individual subjects): 36.5 μg/mL and 33.0 μg/mL (2×) and 28.0 μg/mL and 25.5 μg/mL; Cmax (BC, individual subjects): 37700 ng/mL and 34300 ng/mL and 33000 ng/mL and 32000 ng/mL and 27600 ng/mL; T1/2 (BC, individual subjects): 34.5 h and 83.0 h and 30.6 h and 45.5 h and 61.4 h; Tmax (BC, individual subjects): 1.00 h and 0.170 h and 0.500 h; AUC0-24 hr (CRC, Mean, N 3): 677 µg·h/mL; AUCall (CRC, Mean, N 3): 1790 µg·h/mL; AUClast (CRC, Mean, N 3): 1150 µg·h/mL; C10 m (CRC, Mean, N 3): 35.5 µg/mL; Cmax (CRC, Mean, N 3): 36400 ng/mL; T1/2 (CRC, Mean, N 3): 46.3 h; Tmax (CRC, Mean, N 3): 0.557 h; AUC0-24 hr (CRC, Median, N 3): 684 µg·h/mL; AUCall (CRC, Median, N 3): 1090 µg·h/mL; AUClast (CRC, Median, N 3): 971 µg·h/mL; C10 m (CRC, Median, N 3): 35.8 µg/mL; Cmax (CRC, Median, N 3): 36400 ng/mL; T1/2 (CRC, Median, N 3): 33.4 h; Tmax (CRC, Median, N 3): 0.500 h; AUC0-24 hr (CRC, individual subjects): 721 µg·h/mL and 684 µg·h/mL and 626 µg·h/mL; AUCall (CRC, individual subjects): 3350 µg·h/mL and 939 µg·h/mL and 1090 µg·h/mL; AUClast (CRC, individual subjects): 1780 µg·h/mL and 684 µg·h/mL and 971 µg·h/mL; C10 m (CRC, individual subjects): 38.6 µg/mL and 32.1 µg/mL and 35.8 µg/mL; Cmax (CRC, individual subjects): 38600 ng/mL and 34100 ng/mL and 36400 ng/mL; T1/2 (CRC, individual subjects): 77.9 h and 33.4 h and 27.7 h; Tmax (CRC, individual subjects): 0.170 h and 1.00 h and 0.500 h; AUC0-24 hr (EC, Mean, N 3): 659 µg·h/mL; AUCall (EC, Mean, N 3): 1570 µg·h/mL; AUClast (EC, Mean, N 3): 1170 µg·h/mL; C10 m (EC, Mean, N 3): 34.7 µg/mL; Cmax (EC, Mean, N 3): 35800 ng/mL; T1/2 (EC, Mean, N 3): 37.1 h; Tmax (EC, Mean, N 3): 0.723 h; AUC0-24 hr (EC, Median, N 3): 606 µg·h/mL; AUCall (EC, Median, N 3): 1460 µg·h/mL; AUClast (EC, Median, N 3): 1270 µg·h/mL; C10 m (EC, Median, N 3): 32.6 µg/mL; Cmax (EC, Median, N 3): 32600 ng/mL; T1/2 (EC, Median, N 3): 34.4 h; Tmax (EC, Median, N 3): 1.00 h; AUC0-24 hr (EC, individual subjects): 606 µg·h/mL and 787 µg·h/mL and 585 µg·h/mL; AUCall (EC, individual subjects): 2150 µg·h/mL and 1460 µg·h/mL and 1100 µg·h/mL; AUClast (EC, individual subjects): 1280 µg·h/mL and 1270 µg·h/mL and 961 µg·h/mL; C10 m (EC, individual subjects): 31.4 µg/mL and 40.0 µg/mL and 32.6 µg/mL; Cmax (EC, individual subjects): 32600 ng/mL and 42200 ng/mL; T1/2 (EC, individual subjects): 43.3 h and 34.4 h and 33.6 h; Tmax (EC, individual subjects): 1.00 h and 0.170 h; T1/2 (HNSCC, Mean, N 5): 41.4 h; AUC0-24 hr (HNSCC, Mean, N 7): 585 µg·h/mL; AUCall (HNSCC, Mean, N 7): 1620 µg·h/mL; AUClast (HNSCC, Mean, N 7): 1020 µg·h/mL; C10 m (HNSCC, Mean, N 7): 32.5 µg/mL
